Laboratory results: paper PMC10397247
Each block holds one binder with its values, some of them ahead of it.

Assays:
O8 = target: T1, O8; assay: two-hybrid library CC0; conditions: mean of both orientations;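 note: natural log of median RNA to DNA barcode read ratio; higher means stronger binding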
T1 chain: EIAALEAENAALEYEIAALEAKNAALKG

O7 = target: T2, O7; assay: two-hybrid library CC0; conditions: mean of both orientations;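 note: natural log of median RNA to DNA barcode read ratio; higher means stronger binding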
T2 chain: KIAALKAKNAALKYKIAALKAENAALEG

O9 = target: T3, O9; assay: two-hybrid library CC0; conditions: mean of both orientations;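 note: natural log of median RNA to DNA barcode read ratio; higher means stronger binding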
T3 chain: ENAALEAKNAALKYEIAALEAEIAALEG

4H754-bA = target: T4, 4H754-bA; assay: two-hybrid library CCNG1;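 note: natural log of median RNA to DNA barcode read ratio; higher means stronger binding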
T4 chain: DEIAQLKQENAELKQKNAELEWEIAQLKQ

4H3926-bA = target: T5, 4H3926-bA; assay: two-hybrid library CCNG1;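 note: natural log of median RNA to DNA barcode read ratio; higher means stronger binding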
T5 chain: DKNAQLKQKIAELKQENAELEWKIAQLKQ

4H797-bA = target: T6, 4H797-bA; assay: two-hybrid library CCNG1;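 note: natural log of median RNA to DNA barcode read ratio; higher means stronger binding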
T6 chain: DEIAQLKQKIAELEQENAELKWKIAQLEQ

4H4073-bA = target: T7, 4H4073-bA; assay: two-hybrid library CCNG1
T7 chain: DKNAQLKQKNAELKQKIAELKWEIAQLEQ

4H968-bA = target: T8, 4H968-bA; assay: two-hybrid library CCNG1
T8 chain: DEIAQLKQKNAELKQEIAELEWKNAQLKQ

4H918-bA = target: T9, 4H918-bA; assay: two-hybrid library CCNG1
T9 chain: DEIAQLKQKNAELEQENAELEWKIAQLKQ

4H457-bA = target: T10, 4H457-bA; assay: two-hybrid library CCNG1
T10 chain: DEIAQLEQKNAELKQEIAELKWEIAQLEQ

4H575-bA = target: T11, 4H575-bA; assay: two-hybrid library CCNG1
T11 chain: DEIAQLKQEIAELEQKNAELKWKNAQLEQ

4H346-bA = target: T12, 4H346-bA; assay: two-hybrid library CCNG1
T12 chain: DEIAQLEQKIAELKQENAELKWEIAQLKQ

4H683-bA = target: T13, 4H683-bA; assay: two-hybrid library CCNG1
T13 chain: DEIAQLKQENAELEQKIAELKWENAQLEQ

4H780-bA = target: T14, 4H780-bA; assay: two-hybrid library CCNG1
T14 chain: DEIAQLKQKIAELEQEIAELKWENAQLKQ

4H953-bA = target: T15, 4H953-bA; assay: two-hybrid library CCNG1
T15 chain: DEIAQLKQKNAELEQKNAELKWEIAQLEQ

4H855-bA = target: T16, 4H855-bA; assay: two-hybrid library CCNG1
T16 chain: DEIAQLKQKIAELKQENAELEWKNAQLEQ

4H3782-bH = target: T17, 4H3782-bH; assay: two-hybrid library CCNG1
T17 chain: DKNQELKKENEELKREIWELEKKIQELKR

4H568-bH = target: T18, 4H568-bH; assay: two-hybrid library CCNG1
T18 chain: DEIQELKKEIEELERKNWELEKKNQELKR

4H953-bH = target: T19, 4H953-bH; assay: two-hybrid library CCNG1
T19 chain: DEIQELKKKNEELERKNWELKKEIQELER

4H462-bH = target: T20, 4H462-bH; assay: two-hybrid library CCNG1
T20 chain: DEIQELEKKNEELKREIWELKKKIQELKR

4H883-bH = target: T21, 4H883-bH; assay: two-hybrid library CCNG1
T21 chain: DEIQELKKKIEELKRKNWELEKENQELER

4H687-bH = target: T22, 4H687-bH; assay: two-hybrid library CCNG1
T22 chain: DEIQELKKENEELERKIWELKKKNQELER

4H797-bH = target: T23, 4H797-bH; assay: two-hybrid library CCNG1
T23 chain: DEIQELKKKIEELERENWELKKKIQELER

4H967-bH = target: T24, 4H967-bH; assay: two-hybrid library CCNG1
T24 chain: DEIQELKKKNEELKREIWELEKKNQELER

4H72-bH = target: T25, 4H72-bH; assay: two-hybrid library CCNG1
T25 chain: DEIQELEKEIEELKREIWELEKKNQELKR

4H370-bH = target: T26, 4H370-bH; assay: two-hybrid library CCNG1
T26 chain: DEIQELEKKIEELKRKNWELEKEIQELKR

4H687-bA = target: T27, 4H687-bA; assay: two-hybrid library CCNG1
T27 chain: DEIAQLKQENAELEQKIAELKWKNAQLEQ

4H4001-bH = target: T28, 4H4001-bH; assay: two-hybrid library CCNG1
T28 chain: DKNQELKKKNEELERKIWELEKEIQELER

4H918-bH = target: T29, 4H918-bH; assay: two-hybrid library CCNG1
T29 chain: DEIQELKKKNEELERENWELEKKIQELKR

4H607-bH = target: T30, 4H607-bH; assay: two-hybrid library CCNG1
T30 chain: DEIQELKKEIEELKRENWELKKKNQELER

4H3843-bH = target: T31, 4H3843-bH; assay: two-hybrid library CCNG1
T31 chain: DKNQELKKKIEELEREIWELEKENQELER

O8-bP = target: T32, O8-bP; assay: two-hybrid library CCNG1
T32 chain: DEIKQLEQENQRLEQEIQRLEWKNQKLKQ

O5-bP = target: T33, O5-bP; assay: two-hybrid library CCNG1
T33 chain: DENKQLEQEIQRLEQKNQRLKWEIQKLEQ

O7-bP = target: T34, O7-bP; assay: two-hybrid library CCNG1
T34 chain: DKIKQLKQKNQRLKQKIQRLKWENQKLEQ

O9-bP = target: T35, O9-bP; assay: two-hybrid library CCNG1
T35 chain: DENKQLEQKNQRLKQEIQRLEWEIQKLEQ

O6-bP = target: T36, O6-bP; assay: two-hybrid library CCNG1
T36 chain: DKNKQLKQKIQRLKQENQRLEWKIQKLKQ

Binder: KIAALKAKNAALKYKIAALKAENAALEG [O7]
- interaction score (O8): 1.47
- interaction score (O7): -2.81
- interaction score (O9): -2.77

Binder: DEIAQLEQKIAELKQENAELKWEIAQLKQ [4H346-bA]
- interaction score (4H754-bA): -0.388
- interaction score (4H3926-bA): 1.57
- interaction score (4H797-bA): -0.562
- interaction score (4H4073-bA): -0.388
- interaction score (4H968-bA): -0.648
- interaction score (4H918-bA): -0.428
- interaction score (4H457-bA): -0.833
- interaction score (4H575-bA): -0.114
- interaction score (4H346-bA): 1.48
- interaction score (4H683-bA): 0.357
- interaction score (4H780-bA): -0.692
- interaction score (4H953-bA): -1.6
- interaction score (4H855-bA): 0.0345

Binder: DEIQELEKKIEELKRKNWELEKEIQELKR [4H370-bH]
- interaction score (4H3782-bH): 0.858
- interaction score (4H568-bH): 0.618
- interaction score (4H953-bH): 0.739
- interaction score (4H462-bH): 0.842
- interaction score (4H883-bH): -0.56
- interaction score (4H687-bH): -1.39
- interaction score (4H797-bH): 0.396
- interaction score (4H967-bH): 0.239
- interaction score (4H72-bH): -0.56
- interaction score (4H370-bH): 0.649
- interaction score (4H687-bA): 0.534
- interaction score (4H4001-bH): 0.0634
- interaction score (4H918-bH): -0.0355
- interaction score (4H607-bH): -0.999
- interaction score (4H3843-bH): 0.946

Continued, values first:

- interaction score (O8-bP): -0.837
- interaction score (O5-bP): -1.57
- interaction score (O7-bP): -1.28
- interaction score (O9-bP): -1.33
- interaction score (O6-bP): 2.35
Binder: DENKQLEQEIQRLEQKNQRLKWEIQKLEQ [O5-bP]

- interaction score (O8-bP): 1.3
- interaction score (O7-bP): -1.43
- interaction score (O9-bP): -1.09
Binder: DKIKQLKQKNQRLKQKIQRLKWENQKLEQ [O7-bP]
